Source: patent publication US20150133524

Target: PDH E1α subunit (pyruvate dehydrogenase E1 alpha subunit, 41 kDa) (UniProt P35486)
Sequence (P35486 30-390): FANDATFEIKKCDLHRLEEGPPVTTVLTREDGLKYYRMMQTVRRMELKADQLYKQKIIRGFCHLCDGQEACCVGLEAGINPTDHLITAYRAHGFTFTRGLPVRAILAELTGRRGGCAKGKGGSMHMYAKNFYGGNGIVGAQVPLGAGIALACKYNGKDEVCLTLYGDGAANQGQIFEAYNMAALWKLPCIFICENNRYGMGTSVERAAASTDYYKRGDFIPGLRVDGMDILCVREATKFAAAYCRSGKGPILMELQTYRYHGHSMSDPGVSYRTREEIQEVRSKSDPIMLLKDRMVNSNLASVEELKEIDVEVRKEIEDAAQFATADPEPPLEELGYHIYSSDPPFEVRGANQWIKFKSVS

Sequence of human PDK1 (pyruvate dehydrogenase kinase, isoenzyme 1) (chain, as listed by the source): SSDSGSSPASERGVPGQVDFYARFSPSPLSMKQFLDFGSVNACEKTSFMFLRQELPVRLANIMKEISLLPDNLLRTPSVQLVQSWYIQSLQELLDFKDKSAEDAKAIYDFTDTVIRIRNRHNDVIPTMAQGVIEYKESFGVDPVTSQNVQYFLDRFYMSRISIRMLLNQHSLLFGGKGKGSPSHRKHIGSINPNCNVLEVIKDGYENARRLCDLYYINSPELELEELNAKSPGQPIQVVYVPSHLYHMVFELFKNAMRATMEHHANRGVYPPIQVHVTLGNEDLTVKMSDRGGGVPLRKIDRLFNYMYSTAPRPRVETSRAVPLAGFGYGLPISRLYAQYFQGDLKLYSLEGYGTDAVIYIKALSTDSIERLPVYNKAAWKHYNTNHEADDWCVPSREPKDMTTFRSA

human PDK1 (pyruvate dehydrogenase kinase, isoenzyme 1)
PDH E1α subunit phosphorylation (immunoblot after two-dimensional gel electrophoresis of lysates of Hif1a-/- MEFs with forced PDK1 expression against empty vector): This overexpression resulted in increased PDH E1α subunit phosphorylation
